Source: paper PMC6430397, “The pharmacological properties of 3-arm or 4-arm DOTA constructs for conjugation to α-melanocyte-stimulating hormone analogues for melanoma imaging” (PLoS ONE, 2019)

Key:
[1] = Biological distribution in B16-F1 melanoma-bearing mice; assay type: in vivo, mouse; conditions: male, C57BL6, mouse, in vivo, iv, 37 kBq/mouse, total radioactivity, Biological distribution
Description: C57BL6 male mice (5 weeks old) were transplanted with B16-F1 cells (5 × 10^5 cells/100 μL) into the thigh of the mice. […] The mice were housed and continuously monitored each day for 2 weeks in a 12-hour light/12-hour dark cycle with free access to food and water. The tumor size reached 8.7 ± 2.8 mm at 2 weeks after transplant of cells. Two mice with tumor sizes of 13 and 15 mm were excluded from our experiments. Mice with a tumor size <10 mm were fasted with no food overnight with water supplied ad libitum before experiments.
For biological distribution studies, B16-F1-bearing mice were administered ^111In-labeled 3-arm or 4-arm DOTA-α-MSH via the tail vein (37 kBq/mouse). At 10, 30, 60, 120, and 180 min after injection, the mice were euthanized under isoflurane (n = 3 per time point), and the following tissues were collected: brain, lung, heart, stomach, liver, small intestine, large intestine, kidney, blood, muscle, and B16-F1 melanoma. Tissues were weighed, and radioactivity was quantified using an automated γ-ray counter to calculate the percent injected dose (%ID) or percent injected dose per gram of tissue (%ID/g).
For SPECT imaging, ^111In-labeled 3-arm or 4-arm DOTA-α-MSH was injected into the tail vein of four B16-F1-bearing mice in total (37 MBq/mouse). For SPECT imaging, acquisition was started at 10 min after injection and continued every 10 min for 180 min. The data were reconstructed using the ordered subset expectation maximization method with 16 subsets and six iterations including no scatter and attenuation correction. The voxel size was set to 0.8×0.8×0.8 mm. Post-reconstruction smoothing filtering was applied using a 1.0-mm Gaussian filter. […] In these images, three to five regions of interest were placed over the kidney, muscle, and B16-F1 melanoma in which accumulation could be seen, and the time activity curve of each was obtained as the %ID/g.

[2] = Partition coefficient, n-octanol / 0.1 M phosphate buffer; assay type: physicochemical; conditions: pH 7.4
Description: The partition coefficients of ^111In-labeled 3-arm and 4-arm DOTA-α-MSH were measured using 2.0 mL n-octanol as the organic phase and 2.0 mL 0.l M phosphate buffer as the aqueous phase (pH 7.4 for plasma). N-octanol and the buffer were pre-mixed twice using a mechanical mixer for 1 min at room temperature. Then, 20 µL radioactive sample were added and mixed twice using a mechanical mixer for 1 min at room temperature. The radioactivity of 200 uL of each phase was measured after centrifugation. Calculation of log (n-octanol/0.l M phosphate buffer) was performed.

MC1-R = molecular target: T1, MC1-R (Mus musculus, UniProt Q01727); conditions: endogenous ligand; cited from earlier work
T1 construct: host or cells: B16-F1 mouse melanoma cells
T1 sequence (Q01727 whole entry): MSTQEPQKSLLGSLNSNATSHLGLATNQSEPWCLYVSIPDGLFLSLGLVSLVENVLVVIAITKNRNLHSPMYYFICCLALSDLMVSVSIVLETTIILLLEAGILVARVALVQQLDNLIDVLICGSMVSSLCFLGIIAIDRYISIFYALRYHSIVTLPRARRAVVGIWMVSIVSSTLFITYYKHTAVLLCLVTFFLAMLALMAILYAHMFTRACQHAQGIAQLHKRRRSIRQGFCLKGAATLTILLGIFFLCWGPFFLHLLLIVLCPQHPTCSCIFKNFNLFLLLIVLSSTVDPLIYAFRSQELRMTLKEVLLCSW
From the text: The melanocortin 1 receptor (MC1-R) is one of the most targeted melanoma antigens and belongs to the melanocortin family of G protein-coupled receptors, which consists of five receptor subtypes, MC1-R to MC5-R. MC1-R is expressed in nearly all primary and metastatic melanomas and 95% of uveal melanomas. MC1-R is an attractive receptor for molecular-targeted imaging and radionuclide therapy of melanoma. α-melanocyte-stimulating hormone (α-MSH), a tridecapeptide, is an endogenous ligand for the melanocortin family of receptors, with subnanomolar binding affinity to MC1-R [5].

## CSCC[C@H](NC(=O)[C@H](CO)NC(=O)[C@H](Cc1ccc(O)cc1)NC(=O)[C@H](CO)NC(C)=O)C(=O)N[C@@H](CCC(=O)O)C(=O)N[C@@H](Cc1c[nH]cn1)C(=O)N[C@@H](Cc1ccccc1)C(=O)N[C@@H](CCCNC(=N)N)C(=O)N[C@@H](Cc1c[nH]c2ccccc12)C(=O)NCC(=O)N[C@@H](CCCCNC(=O)CN1CCN(CC(=O)O)CCN(CC(=O)O)CCN(CC(=O)O)CC1)C(=O)N1CCC[C@H]1C(=O)N[C@H](C(=O)O)C(C)C [^111In-labeled 3-arm DOTA-α-MSH, metal not drawn]
[1]; Blood
  tissue uptake at 10 min: 3.11 %ID/g
  tissue uptake at 0.5 h: 1.91 %ID/g
  tissue uptake at 1 h: 0.89 %ID/g
  tissue uptake at 2 h: 0.21 %ID/g
  tissue uptake at 3 h: 0.05 %ID/g
[1]; Brain
  tissue uptake at 10 min: 0.04 %ID/g
  tissue uptake at 0.5 h: 0.05 %ID/g
  tissue uptake at 1 h: 0.05 %ID/g
  tissue uptake at 2 h: 0.03 %ID/g
  tissue uptake at 3 h: 0.02 %ID/g
[1]; Heart
  tissue uptake at 10 min: 0.74 %ID/g
  tissue uptake at 0.5 h: 0.66 %ID/g
  tissue uptake at 1 h: 0.46 %ID/g
  tissue uptake at 2 h: 0.14 %ID/g
  tissue uptake at 3 h: 0.06 %ID/g
[1]; Kidney
  tissue uptake at 10 min: 23.6 %ID/g
  tissue uptake at 0.5 h: 18.4 %ID/g
  tissue uptake at 1 h: 11.9 %ID/g
  tissue uptake at 2 h: 8.42 %ID/g
  tissue uptake at 3 h: 7.07 %ID/g
[1]; Large intestine
  tissue uptake dose at 10 min: 0.03 %ID
  tissue uptake dose at 0.5 h: 0.08 %ID
  tissue uptake dose at 1 h: 0.09 %ID
  tissue uptake dose at 2 h: 0.05 %ID
  tissue uptake dose at 3 h: 0.04 %ID
[1]; Liver
  tissue uptake at 10 min: 2.3 %ID/g
  tissue uptake at 0.5 h: 1.15 %ID/g
  tissue uptake at 1 h: 1.12 %ID/g
  tissue uptake at 2 h: 1.23 %ID/g
  tissue uptake at 3 h: 0.72 %ID/g
[1]; Lung
  tissue uptake at 10 min: 0.51 %ID/g
  tissue uptake at 0.5 h: 0.66 %ID/g
  tissue uptake at 1 h: 0.31 %ID/g
  tissue uptake at 2 h: 0.27 %ID/g
  tissue uptake at 3 h: 0.1 %ID/g
[1]; Melanoma
  tissue uptake at 10 min: 1.71 %ID/g
  tissue uptake at 0.5 h: 1.81 %ID/g
  tissue uptake at 1 h: 2.49 %ID/g
  tissue uptake at 2 h: 3.36 %ID/g
  tissue uptake at 3 h: 3.51 %ID/g
[1]; Muscle
  tissue uptake at 10 min: 0.21 %ID/g
  tissue uptake at 0.5 h: 0.2 %ID/g
  tissue uptake at 1 h: 0.15 %ID/g
  tissue uptake at 2 h: 0.09 %ID/g
  tissue uptake at 3 h: 0.05 %ID/g
[1]; Small intestine
  tissue uptake dose at 10 min: 0.04 %ID
  tissue uptake dose at 0.5 h: 0.08 %ID
  tissue uptake dose at 1 h: 0.09 %ID
  tissue uptake dose at 2 h: 0.12 %ID
  tissue uptake dose at 3 h: 0.1 %ID
[1]; Stomach
  tissue uptake dose at 10 min: 0.06 %ID
  tissue uptake dose at 0.5 h: 0.1 %ID
  tissue uptake dose at 1 h: 0.12 %ID
  tissue uptake dose at 2 h: 0.11 %ID
  tissue uptake dose at 3 h: 0.12 %ID
[2]
  logD: -0.28 ± 0.03

## α-melanocyte-stimulating hormone [α-MSH]
MC1-R
  binding affinity to MC1-R: subnanomolar
